Read-outs that look alike come from different tables or passages of the source.
Columns and labels:
[1] = target: T1, human CD33 (antigen of the BLI measurement, Table 11) (human, UniProt P20138 18-259, limits assumed); test: BLI, IgG on AHC
T1 construct: 100 nM antigen in solution; construct not described; whole entry named

Human CD33 R69G [2] = target: T2, Human CD33 R69G (human, UniProt P20138 18-259); test: SPR captured Fab
V domain of human CD33 [3] = target: T3, V domain of human CD33 (human, UniProt P20138 18-139, limits assumed); test: SPR captured Fab
T3 construct: Whole entry named; also called Human CD33 V domain

V domain of human CD33 [4] = target: T3, V domain of human CD33; test: SPR captured Fab; remark: listed apart in the source
Human CD33 S128N = Human CD33 S128N (human, UniProt P20138 18-259); test: SPR captured Fab
Human CD33 R69G [5] = target: T2, Human CD33 R69G; test: SPR captured Fab; remark: listed apart in the source

Binder	Kd (Human CD33 R69G [2]) [nM]	koff (Human CD33 R69G [2]) [s⁻¹]	kon (Human CD33 R69G [2]) [M⁻¹ s⁻¹]	Kd (Human CD33 S128N) [nM]	koff (Human CD33 S128N) [s⁻¹]	kon (Human CD33 S128N) [M⁻¹ s⁻¹]	other results
ADI-10159 IgG (antibody, V domains shown, IgG; also called Ab1; G59) VH: EVQLVESGGGLVQPGGSLRLSCAASGFTFSSYGMSWVRQAPGKGLEWVANIKQDGSEKYYVDSVKGRFTISRDNAKNSLYLQMNSLRAEDTAVYYCAREGGPYYDSSGYFVYYGMDVWGQGTTVTVSS VL: DIQMTQSPSTLSASVGDRVTITCRASQSISSWLAWYQQKPGKAPKLLIYDASSLESGVPSRFSGSGSGTEFTLTISSLQPDDFATYYCQQYESFPTFGGGTKVEIK	–	–	–	–	–	–	Kd [1]: 0.58 nM; koff [1]: 0.0002 s⁻¹
ADI-11776 Fab (Fab, V domains shown, Fab fragment; also called Ab3; H76) VH: EVQLLESGGGLVQPGGSLRLSCAASGFTFSKYTMSWVRQAPGKGLEWVSAIVGSGESTYFADSVKGRFTISRDNSKNTLYLQMNSLRAEDTAVYYCAREGGPYYDSSGYFVYYGMDVWGQGTTVTVSS VL: DIQMTQSPSTLSASVGDRVTITCRASQSISSWLAWYQQKPGKAPKLLIYKASSLESGVPSRFSGSGSGTEFTLTISSLQPDDFATYYCQQYDDLPTFGGGTKVEIK	0.22	0.000426	1.98e+06	–	–	–	koff (V domain of human CD33 [3]): 0.0143 s⁻¹; koff (V domain of human CD33 [4]): 0.0143 s⁻¹
ADI-10160 Fab (Fab, V domains shown, Fab fragment; also called Ab15) VH: EVQLVESGGGLVQPGGSLRLSCAASGFTFSSYWMSWVRQAPGKGLEWVANINQDGSEKYYVDSVKGRFTISRDNAKNSLYLQMNSLRAEDTAVYYCAREANYYGNVGDDYWGQGTLVTVSS VL: not shown	63.7	0.0533	836000	85.7	0.0673	786000	–
ADI-10159 Fab (Fab, V domains shown, Fab fragment; also called Ab1; G59) VH: EVQLVESGGGLVQPGGSLRLSCAASGFTFSSYGMSWVRQAPGKGLEWVANIKQDGSEKYYVDSVKGRFTISRDNAKNSLYLQMNSLRAEDTAVYYCAREGGPYYDSSGYFVYYGMDVWGQGTTVTVSS VL: DIQMTQSPSTLSASVGDRVTITCRASQSISSWLAWYQQKPGKAPKLLIYDASSLESGVPSRFSGSGSGTEFTLTISSLQPDDFATYYCQQYESFPTFGGGTKVEIK	5.68	0.00243	426000	–	–	–	–
ADI-11807 Fab (Fab, V domains shown, Fab fragment; also called Ab5; I07) VH: EVQLVESGGGLVQPGGSLRLSCAASGFTFGSYWMSWVRQAPGKGLEWVATIKQDGSEKSYVDSVKGRFTISRDNAKNSLYLQMNSLRAEDTAVYYCARPLNAGELDVWGQGTMVTVSS VL: DIQMTQSPSTLSASVGDRVTITCRASQSISSWLAWYQQKPGKAPKLLIYEASSLESGVPSRFSGSGSGTEFTLTISSLQPDDFATYYCQQSQSYPPITFGGGTKVEIK	0.43	0.000259	597000	–	–	–	–
ADI-11828 Fab (Fab, V domains shown, Fab fragment; also called Ab27) VH: EVQLVESGGGLVQPGGSLRLSCAASGFTFSSYWMSWVRQAPGKGLEWVANINQDGSEVYYVDSVKGRFTISRDNAKNSLYLQMNSLRAEDTAVYYCARDVGPGIAYQGHFDYWGQGTLVTVSS VL: DIQMTQSPSSLSASVGDRVTITCRASQSIYYYLNWYQQKPGKAPKLLIYAASSRQSGVPSRFSGSGSGTDFTLTISSLQPEDFATYYCQQVYDTPLTFGGGTKVEIK	6.03	0.007	1.16e+06	5.41	0.00742	1.37e+06	–
ADI-11815 Fab (Fab, V domains shown, Fab fragment; also called Ab7) VH: QVQLVQSGAEVKKPGASVKVSCKASGYTFGTYYMHWVRQAPGQGLEWMGIINPSRGSTVYAQKFQGRVTMTRDTSTSTVYMELSSLRSEDTAVYYCARGAGYDDEDMDVWGKGTTVTVSS VL: DIQMTQSPSSVSASVGDRVTITCRASQGIDSWLAWYQQKPGKAPKLLIYAASSLQSGVPSRFSGSGSGTDFTLTISSLQPEDFATYYCQQAHSYPLTFGGGTKVEIK	4.34	0.0013	300000	–	–	–	Kd (Human CD33 R69G [5]): 4.34 nM; koff (Human CD33 R69G [5]): 0.0013 s⁻¹; kon (Human CD33 R69G [5]): 300000 M⁻¹ s⁻¹
ADI-10157 Fab (Fab, V domains shown, Fab fragment; also called Ab13) VH: QVQLQESGPGLVKPSETLSLTCTVSGGSISSYYWSWIRQPPGKGLEWIGSIYYSGSTNYNPSLKSRVTISVDTSKNQFSLKLSSVTAADTAVYYCARVGGVYSTIETYGMDVWGQGTTVTVSS VL: EIVMTQSPATLSVSPGERATLSCRASQSVSSNLAWYQQKPGQAPRLLIYGASTRATGIPARFSGSGSGTEFTLTISSLQSEDFAVYYCQQYTVYPPTFGGGTKVEIK	17.8	0.0287	1.56e+06	163	0.00924	56500	–
ADI-10161 Fab (Fab, V domains shown, Fab fragment; also called Ab16) VH: EVQLVESGGGLVQPGGSLRLSCAASGFTFSSYWMSWVRQAPGKGLEWVANINQDGSEKYYVDSVKGRFTISRDNAKNSLYLQMNSLRAEDTAVYYCAREGGDSWYHAFDIWGQGTMVTVSS VL: DIQMTQSPSSVSASVGDRVTITCRASQGISSWLAWYQQKPGKAPKLLIYAASNLQSGVPSRFSGSGSGTDFTLTISSLQPEDFATYYCQQKLSLPLTFGGGTKVEIK	48.9	0.0307	629000	63.6	0.0385	605000	–
ADI-10164 Fab (Fab, V domains shown, Fab fragment; also called Ab18) VH: QVQLQESGPGLVKPSETLSLTCAVSGYSISSGYYWGWIRQPPGKGLEWIGSIYHSGSTNYNPSLKSRVTISVDTSKNQFSLKLSSVTAADTAVYYCARLPPWFGFSYFDLWGRGTLVTVSS VL: EIVLTQSPATLSLSPGERATLSCRASQSVSSYLAWYQQKPGQAPRLLIYDASNRATGIPARFSGSGSGTDFTLTISSLEPEDFAVYYCQQVDNYPPTFGGGTKVEIK	113	0.035	308000	279	0.0539	193000	–
ADI-11802 Fab (Fab, V domains shown, Fab fragment; also called Ab23) VH: QVQLVQSGAEVKKPGASVKVSCKASGYTFSGYYMHWVRQAPGQGLEWMGMINPYGGSTRYAQKFQGRVTMTRDTSTSTVYMELSSLRSEDTAVYYCAREAADGFVGERYFDLWGRGTLVTVSS VL: not shown	–	–	–	0.809	0.00059	662000	–

Now from value to binder, other results behind:

Kd (Human CD33 R69G [2]) [nM]	koff (Human CD33 R69G [2]) [s⁻¹]	kon (Human CD33 R69G [2]) [M⁻¹ s⁻¹]	Kd (Human CD33 S128N) [nM]	koff (Human CD33 S128N) [s⁻¹]	kon (Human CD33 S128N) [M⁻¹ s⁻¹]	Binder	other results
3.74	0.00695	1.86e+06	3.09	0.00649	2.1e+06	ADI-11825 Fab (Fab, V domains shown, Fab fragment; also called Ab25) VH: EVQLVESGGGLVQPGGSLRLSCAASGFTFGGYWMSWVRQAPGKGLEWVANINQDGSEEYYVDSVKGRFTISRDNAKNSLYLQMNSLRAEDTAVYYCAREANYYGNVGDDYWGQGTLVTVSS VL: DIQMTQSPSSLSASVGDRVTITCRASQSIYNYLNWYQQKPGKAPKLLIYAASNLHSGVPSRFSGSGSGTDFTLTISSLQPEDFATYYCQQAFHVPITFGGGTKVEIK	–
0.22	0.000179	815000	–	–	–	ADI-11809 Fab (Fab, V domains shown, Fab fragment; also called Ab6) VH: EVQLVESGGGLVQPGGSLRLSCAASGFTFPSYWMSWVRQAPGKGLEWVATIKRDGSEKGYVDSVKGRFTISRDNAKNSLYLQMNSLRAEDTAVYYCARPLNAGELDVWGQGTMVTVSS VL: DIQMTQSPSTLSASVGDRVTITCRASQSISSWLAWYQQKPGKAPKLLIYEASSLESGVPSRFSGSGSGTEFTLTISSLQPDDFATYYCQQSQSYPPITFGGGTKVEIK	–
0.09	0.000244	2.78e+06	–	–	–	ADI-11819 Fab (Fab, V domains shown, Fab fragment; also called Ab8) VH: EVQLVESGGGLVKPGGSLRLSCAASGFTFSSYAMSWVRQAPGKGLEWVSSISSSSEGIYYADSVKGRFTISRDNAKNSLYLQMNSLRAEDTAVYYCAREGGPYYDSSGYFVYYGMDVWGQGTTVTVSS VL: DIQMTQSPSTLSASVGDRVTITCRASNSISSWLAWYQQKPGKAPKLLIYEASSTKSGVPSRFSGSGSGTEFTLTISSLQPDDFATYYCQQYDDLPTFGGGTKVEIK	–
2.94	0.00663	2.27e+06	–	–	–	ADI-11830 Fab (Fab, V domains shown, Fab fragment; also called Ab9) VH: EVQLVESGGGLVQPGGSLRLSCAASGFTFSSYWMSWVRQAPGKGLEWVANINTDGSEVYYVDSVKGRFTISRDNAKNSLYLQMNSLRAEDTAVYYCARDVGPGIAYQGHFDYWGQGTLVTVSS VL: DIQMTQSPSSLSASVGDRVTITCRASQVIYSYLNWYQQKPGKAPKLLIYAASSLKSGVPSRFSGSGSGTDFTLTISSLQPEDFATYYCQQVYDTPLTFGGGTKVEIK	–
0.67	0.00205	3.07e+06	–	–	–	ADI-11835 Fab (Fab, V domains shown, Fab fragment; also called Ab10; 135 (so in the source)) VH: QLQLQESGPGLVKPSETLSLTCTVSGGSISSTDYYWGWIRQPPGKGLEWIGSIGYSGTYYNPSLKSRVTISVDTSKNQFSLKLSSVTAADTAVYYCARETAHDVHGMDVWGQGTTVTVSS VL: EIVLTQSPATLSLSPGERATLSCRASHSVYSYLAWYQQKPGQAPRLLIYDASNRATGIPARFSGSGSGTDFTLTISSLEPEDFAVYYCQQYDNLPTFGGGTKVEIK	–
6.74	0.00228	338000	2.01	0.00112	556000	ADI-11812 Fab (Fab, V domains shown, Fab fragment; also called Ab24) VH: QVQLVQSGAEVKKPGASVKVSCKASGYTFEIYYMHWVRQAPGQGLEWMGIINPSSGSTVYAQKFQGRVTMTRDTSTSTVYMELSSLRSEDTAVYYCARGAGYDDEDMDVWGKGTTVTVSS VL: DIQMTQSPSSVSASVGDRVTITCRASQGIDSWLAWYQQKPGKAPKLLIYAASSLQSGVPSRFSGSGSGTDFTLTISSLQPEDFATYYCQQAHSYPLTFGGGTKVEIK	–
–	–	–	29.5	0.0284	963000	ADI-11839 Fab (Fab, V domains shown, Fab fragment; also called Ab28) VH: QVQLVQSGAEVKKPGASVKVSCKASGYTFSNYYMHWVRQAPGQGLEWMGWINPFSGGTRYAQKFQGRVTMTRDTSTSTVYMELSSLRSEDTAVYYCARDVGSSAYYYMDVWGKGTTVTVSS VL: DIQMTQSPSSVSASVGDRVTITCEASKGISSWLAWYQQKPGKAPKLLIYAASDLQSGVPSRFSGSGSGTDFTLTISSLQPEDFATYYCQQAFLFPPTFGGGTKVEIK	–
